Test results reported in the supplement of paper PMC6379048.

Legend:
Experiment in all cases: Kd (EC50 corrected by depletion factor)
HNRNPM = target: T1, HNRNPM (UniProt P52272)
T1 sequence: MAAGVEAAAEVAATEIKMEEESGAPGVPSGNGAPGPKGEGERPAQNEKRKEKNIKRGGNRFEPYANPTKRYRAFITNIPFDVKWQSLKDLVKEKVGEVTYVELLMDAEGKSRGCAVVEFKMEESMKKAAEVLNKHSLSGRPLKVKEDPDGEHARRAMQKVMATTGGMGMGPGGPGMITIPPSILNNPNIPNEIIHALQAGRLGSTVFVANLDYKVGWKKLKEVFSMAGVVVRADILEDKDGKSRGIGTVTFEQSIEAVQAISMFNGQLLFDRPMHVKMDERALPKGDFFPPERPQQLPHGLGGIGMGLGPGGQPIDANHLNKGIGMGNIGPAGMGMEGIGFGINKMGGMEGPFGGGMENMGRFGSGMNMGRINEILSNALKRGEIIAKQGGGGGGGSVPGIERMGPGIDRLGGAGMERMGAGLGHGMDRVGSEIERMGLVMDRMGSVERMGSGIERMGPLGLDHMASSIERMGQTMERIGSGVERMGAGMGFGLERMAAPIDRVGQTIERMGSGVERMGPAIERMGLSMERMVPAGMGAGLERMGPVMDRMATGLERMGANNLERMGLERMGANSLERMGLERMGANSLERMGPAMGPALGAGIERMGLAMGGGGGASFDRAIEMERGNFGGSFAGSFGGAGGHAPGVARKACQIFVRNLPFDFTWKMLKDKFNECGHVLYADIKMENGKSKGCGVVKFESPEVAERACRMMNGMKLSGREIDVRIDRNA
Summary of the method: (§1)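 Free RNA oligos (0 nM to 30 μM) competed for 1 h at 4°C in HEK293-FT lysate (2.5 mg protein/well) before a 30 min, 4°C pulldown with the same oligos on NHS-Sepharose beads. Bound proteins were quantified by label-free LC-MS/MS and normalised to the control. Kd was found by multiplying EC50, from a four-parameter log-logistic fit, by a protein-dependent depletion factor.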

MRPS27 = MRPS27 (UniProt Q92552)
Summary of the method: as §1

CSTF2T = target: T2, CSTF2T (UniProt Q9H0L4)
T2 sequence: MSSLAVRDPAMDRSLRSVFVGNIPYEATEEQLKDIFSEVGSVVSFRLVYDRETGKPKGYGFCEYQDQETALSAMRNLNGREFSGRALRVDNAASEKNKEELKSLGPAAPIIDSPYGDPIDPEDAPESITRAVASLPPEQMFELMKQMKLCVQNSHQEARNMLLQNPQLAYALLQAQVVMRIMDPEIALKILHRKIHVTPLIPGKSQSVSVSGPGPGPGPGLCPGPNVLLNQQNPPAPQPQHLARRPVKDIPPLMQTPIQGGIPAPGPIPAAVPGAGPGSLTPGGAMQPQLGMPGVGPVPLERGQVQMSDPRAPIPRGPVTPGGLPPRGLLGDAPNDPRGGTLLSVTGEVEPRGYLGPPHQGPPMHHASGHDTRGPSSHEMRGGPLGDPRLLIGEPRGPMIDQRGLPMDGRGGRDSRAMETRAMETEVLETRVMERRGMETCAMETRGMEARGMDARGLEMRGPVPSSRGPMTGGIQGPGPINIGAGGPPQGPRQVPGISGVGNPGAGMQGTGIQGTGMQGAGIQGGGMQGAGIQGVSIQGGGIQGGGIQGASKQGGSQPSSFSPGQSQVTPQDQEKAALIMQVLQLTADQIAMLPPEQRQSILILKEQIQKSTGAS
Summary of the method: as §1

MRPS28 = MRPS28 (UniProt Q9Y2Q9)
Summary of the method: as §1

ERI3 = target: T3, ERI3 (UniProt O43414)
T3 sequence: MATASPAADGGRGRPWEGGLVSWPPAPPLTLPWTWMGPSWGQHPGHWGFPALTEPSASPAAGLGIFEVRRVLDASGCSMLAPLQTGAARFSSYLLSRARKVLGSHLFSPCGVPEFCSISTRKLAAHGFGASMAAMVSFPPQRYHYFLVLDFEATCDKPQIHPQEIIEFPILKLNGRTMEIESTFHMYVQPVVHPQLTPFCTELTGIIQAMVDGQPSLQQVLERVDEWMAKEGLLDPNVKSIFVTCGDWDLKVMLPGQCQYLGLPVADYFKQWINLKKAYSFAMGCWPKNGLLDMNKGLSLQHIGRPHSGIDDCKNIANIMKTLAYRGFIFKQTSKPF
Summary of the method: as §1

HMGB2 = target: T4, HMGB2 (UniProt P26583)
T4 sequence: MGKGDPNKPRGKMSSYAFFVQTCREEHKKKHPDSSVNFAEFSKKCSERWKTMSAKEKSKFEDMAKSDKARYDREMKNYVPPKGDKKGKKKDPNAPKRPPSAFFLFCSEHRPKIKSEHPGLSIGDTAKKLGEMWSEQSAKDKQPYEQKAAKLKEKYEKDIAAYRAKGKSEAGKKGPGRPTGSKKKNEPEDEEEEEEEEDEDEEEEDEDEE
Summary of the method: as §1

PIP5K1A = PIP5K1A (UniProt Q99755)
Summary of the method: as §1

IGF2BP1 = IGF2BP1 (UniProt Q9NZI8)
Summary of the method: as §1

Sequence of IGF2BP1 (Q9NZI8 whole entry): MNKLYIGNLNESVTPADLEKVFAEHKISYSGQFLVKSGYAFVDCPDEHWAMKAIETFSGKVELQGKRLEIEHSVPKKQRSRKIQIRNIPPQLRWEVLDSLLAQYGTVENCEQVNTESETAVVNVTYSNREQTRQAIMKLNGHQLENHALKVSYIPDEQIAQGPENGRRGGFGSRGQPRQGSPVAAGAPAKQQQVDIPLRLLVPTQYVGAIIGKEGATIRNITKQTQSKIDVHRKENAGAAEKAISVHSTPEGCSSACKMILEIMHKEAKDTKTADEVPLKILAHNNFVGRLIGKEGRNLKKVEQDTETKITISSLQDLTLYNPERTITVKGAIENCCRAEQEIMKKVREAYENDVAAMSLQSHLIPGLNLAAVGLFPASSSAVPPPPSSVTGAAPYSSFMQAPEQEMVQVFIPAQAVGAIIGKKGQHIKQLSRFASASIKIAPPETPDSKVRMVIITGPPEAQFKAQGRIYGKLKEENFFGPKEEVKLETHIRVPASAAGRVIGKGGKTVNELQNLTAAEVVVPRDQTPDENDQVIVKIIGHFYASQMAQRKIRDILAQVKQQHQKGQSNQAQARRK
Sequence of PIP5K1A (Q99755 whole entry): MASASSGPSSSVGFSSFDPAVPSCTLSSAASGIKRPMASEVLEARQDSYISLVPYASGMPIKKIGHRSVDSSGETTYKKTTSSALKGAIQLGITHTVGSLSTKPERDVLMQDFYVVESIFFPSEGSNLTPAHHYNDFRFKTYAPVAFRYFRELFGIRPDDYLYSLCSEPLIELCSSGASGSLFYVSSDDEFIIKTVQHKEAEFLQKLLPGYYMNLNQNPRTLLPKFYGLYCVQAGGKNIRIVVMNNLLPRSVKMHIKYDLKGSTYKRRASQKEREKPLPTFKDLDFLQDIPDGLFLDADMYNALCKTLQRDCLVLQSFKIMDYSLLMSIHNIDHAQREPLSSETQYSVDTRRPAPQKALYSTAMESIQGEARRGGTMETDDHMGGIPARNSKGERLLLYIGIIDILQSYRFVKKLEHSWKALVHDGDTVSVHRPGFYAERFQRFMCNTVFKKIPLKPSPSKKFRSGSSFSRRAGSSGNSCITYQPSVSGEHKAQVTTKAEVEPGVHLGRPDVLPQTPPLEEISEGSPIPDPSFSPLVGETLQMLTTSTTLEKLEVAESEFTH

UAUUUAU
Kd (HNRNPM): 4.41 µM | Kd (MRPS27): 0.0498 µM | Kd (CSTF2T): 0.257 µM | Kd (MRPS28): 0.0159 µM

AAUAAA
Kd (ERI3): 0.173 µM | Kd (HMGB2): 0.00205 µM | Kd (PIP5K1A): 0.467 µM

CUGUCCU
Kd (IGF2BP1): 1.24 µM
